Results on 16 sequences are retold here after a protein production outcome set (Wang et al. 2014).

This series in a line: label from the status in PepcDB records.

In the case of “MIFALHIMLRFVPNIVPLSIINKKTMTRIGLLSDTHAFWDDKYLKYFENCDEIWHAGDIGSVEVARKLSAFRPFRAVYGNIDGQDIRRLYPQTNRFTVDGAEVLIKHIGGYPGNYDPSIRGSLLVKPPQLFISGHSHILKVKYDKTLDMLHINPGAAGISGFHKVRTLVRFCIDNGEFKDLEVIELADKL”, the protein production entry is on record as “failed”. With “MIFENRLALSAMAGVNNAEFCRKQKASLVILGGFNADRRALEAAEKAVKRGRKEFLFGIDGIEGEIKKLGRRKFAVNVRSSSLEGYLNVAELVAEFEGIIEINAHCRQPEFVEIGCGEWLLFNHERLVEIVSKTSRIAPTFVKIRGGHKLDYEKIARKLFDAGCLAIHVDAMIPGGGCDFSLIERISRIGNVIGNNSFVDIESGERIIMAGAKMASAARAVLRDENFFEKMLRSPLLSQPVELSCGRFRLEHHHHHH” the entry was “not failed”; with “MIFNTLARYFLKRYLMTTIWFVLGVSSIIYLADFSETARRMSGLPGYSVPAALGLTALRLPLILQQTVPFIALFVGMTTLISLNRRYELVVTRAAGISAWQFILPFVLGAVFIGILSVMVLNPIAAWGQNKSLAMEAGLRNDAGGGRQQEIIPWMRQSSGGKDTIIGAKSFEDNGTMLLDVVLIDVDKDGNIVSRKDAKSAKLEDGYWLLNGVSETRAGHVPVRQESMQISTNLRREFVQERMTQTETVAFFDLSHKIEVAKSFGLSSKALETQYHFLLSTPLLLVAMTLIAATVSLKFSRFAQSRSVILGGIVSGFVLYVVTVLVRAFGSGGVVPPTVAVWVPVIVALALGATILLHQEDG”, “failed”; with “MIFRLGDFRFPDDPARLYPDTPDRPWVLEIGFGDGRFWPHYARTFPEPPNYLGVEISGVSLLKAHRRLKDAGLTNAVLTKLPAEVLVAQVIPHGSLDAIIVNFPDPWPKAGHEDHRLLRVPFFQVAASRLKPGGAALLTTDHDEYFEFACAQAEASGVMRVERVGPPPAALETKYAQKWRDLGLGVNHARFVPTRHDPVPNGTFAPYSEEDPAVPHAVLTLPADFSPQHFDKLTVRGKTWTVVLLDLYATLRRGGWVALAHVVEGDLTQEVLVGITEREDGTHLVRLAKFGGPIITPGVKAAVGAVTEWLEGQGAVVKHRGY”, “failed”. With “MIFRQLFDPQSSTYTYLLADPASREALLIDPVFEQVRRDAALLDELGLRLVATVDTHVHADHVTGAWLLKQRTGSTIAISAASGAQGADRYLNDGDRCAFGARYLTVRATPGHTSGCISLVLDDESMAFTGDCLLIRGTGRTDFQQGDPRALYRAVHARLFTLPAACLLYPAHDYRGLTVTSVGEERRFNPRLGGDLSEDDFAGYMRNLGLAHPRQIDVAVPANLQCGVAANAPDALAAADWAPLVYTFAGFWEIDPQWLEDHLPAVQVVDVREPDEFAGPLGHLPGATPIPLGELAARTGELARDRPIVTVCRAGGRSAQATVILLKAGFDAVANLGGGMLRWRGEGRVVMDGRS” the entry was “failed”; with “MIFSFIFKVAVISSSGALAPGPLTAATAAIGVKRGWKGGFWVSVGHAAVELPLVILIATGVAVVLTHSSALSLLSVAGGVMLLSFAFLTAKSAFSKTEEKAESSANPFSTGVALSALNPFFIAWWAGVGAVLITEAISLWGYAGIAVLYLSHVWLDFAWLILLAHLTSMAIFSAKAYRALLVALAALVFLFGVDFLHYGLFSKHLLPI”, “failed”.

As to “MIFYFSGTGNSKWIAEQIAKAQNEVLVFMPNAIRDGIEEFVLADDEKVGFVFPVYSWGPPLSVLRFLDWITLSNYHSQYVFFVCSCGDDTGLTEELFRRALSRKGMECNAGFSVAMPNNYVLLPGFDVDKKELEKKKLDEAVGRVEEINDSITGKKIGFHCNEGSFPWFKTKVLNPLFNRFMTSAKPFYATDDCIGCKRCERICPVGNVVMIGWRPVWGMDCTSCLACYHVCPKHAVQYGRRTKRKGQYLNPNVSISHEAAAQLEHHHHHH”, the protein production entry was “not failed”. With “MIGEQPGDIFRRGEILNHTYEIEGVLGRGGTGEIYRARNLISGRIVAVKALNRRFSGNDDYIGLMRREEQLRDVIDDAVVRYTECSRSDGGHVFLVMDHIEGPSLAQAMEAGRIEARDLLIVAHRVAEGLRAAHRHGIVHRDLSPDNIILRGGAPERATIIDFGIAKDLSAGAQTIVGNDFAGKYEYAAPEQIDGRAEPRSDLYALGATLLAAFRGEAPFAGATPGEIVRRKGRPLDTEGVPEPLRGLIDRLAAPEAERRPASAAAVVEELDRLLRPQAEPDRRRRVWPALAALLLLAVLAVGGWIALRPPLAEPYRLTASAADLAGEAPDRAAAARIAAAYARAAGHESHGLRIARGAPEGWADAAAEVLALAATLDDWRLALNGAEAALSGRAPDARSAAMVETRFRDWASRRGFEPRLQIEVVPPPLDPQAVSALLQRHADCGPLSEGGTEGVITGAVATAETAAALERALADLRGDRPLHLAITVLNPAICAVRQALPDRPAQGLSIWLGEAATGAPNLAGIYGPGDYPLVEIRLPAGMSGLALWVGLVDVTGSVLNLLPNVYSDESRIDRLGTVANGVRTIRVMPLEFQVAGGTQLFALQVEARDFGRSELVAVVSRGDLFALRRPKDESVASFTEALSALRRDDPDRLVAVTRRLLESRPSR” the entry was “failed”; with “MIGFIGSVFSPWYRWSGRKEPQNHCCLNVATYGPGGRFTMTDRGRAALRQSPDTLTVGPSRMHWTGTQLIVEVNEISSPPLVSPVKGRIVLTPTGITDVEVTLKDDGSHIWRPFAPTARIEVDLTQGHRWHGHGYFDANFGTAALEADFRFWTWGRYPVADGAACFYDATRRDGSRLELGLHVAADGRARLIQPPPEARFARSRWLVERHTPADPGTRPRQVMSMLDAPFYSRAMVETTVFGQKTVGVHEALDLRRFRSPLLMPMLAVRVPRRP”, “failed”; with “MIGKEVLNYTIVSLIGKGGMGSVYLAEHKYIKQQKVAIKVINSDMVNDFTRQRLKEEAEHLASLNHQNIVRFHDYHIDELGSIYLIMEYADGISLDKYIQTVSGLIVEDKICPLFEPILDAVEYAHEHNIIHRDIKPANIIITKEGIPKILDFGIATIINRESVEKDDMVMGTPSYMSPEQVRGDHLDSRSDIYSLGVMLHQMLTGNAPYDTTTLTEYDINKKVVEEPLPRMRTYYKYVSDKVQKIVDKATAKEPGERYQTCDDFKKALHRVIYPPKIPKWVWTSVAAIVLLMIGGGVYFWDYNRTKVYYYKDYVEQWGVPQGIGELSSREMSHVNRLYRFEYKKHKLQRMSHVNSKENIIEDGESERNERPLDMLLYYTDKGNISRAKVLDRSGKVLYVKSYNDKLNTVIFQYDDEYGTEKTLGAQTIGYVRALEDNGVEKGKISRWLLEYDENGYVSTIRYAGFQNVLVGDAHNIYGRKYVRDEKGRVLSEHYLSFDGTPKATKWGLGMKKFYYDENDNWVKAEYLTVDGKPAYDDADGIGVYVMEYDKYGNVVYALHQDADGKLMLPKKNGVAGIKYIYDQHGFPIEASYLDIDRKACFIPNDGFSKVVRKFDDNGYIINQTFYDVDGNQCLSNDGNSSAKYINDNRGNVQEMWFYGLDGKLNEINEGYAGVKLNYDSIGNIIEYVTYGIDQKPCLKSDGTAGYKAEYNDMNLITKLVNIGVDLSPCKDNNGIVIAARDYDKRGNQIKVSFYDAGGKTLVLSNENIAGWNSVYDDNGNETERSFFDDKNNLTVCAGSCAKWISKFDEQGNETNLRYYNLSGKLMMVNGSAGANYKRDKRGNILEKIEIGTDEQLASGKLIARYKYDKFDNQIEFSVYDRNNKPALNSLDYHKYVCIYNSRNQRIEIEYYGKDGELTSYNNDKYAIQKDEYDERGYIVRTSYYGKDKQLVVSNEGWASSTREYDVLGNVLKQSFFGIDGKPTDPKVMVPEGLCRYDRWGNRIYLAAGDGKGHLIINPKTGWSIQKSEYNSRGKLLSEAYFDENEKPLISRMDGYHKAVISYTSSGNEKEKCYYDIMNKPMLCPDGYFKEVYEYNDNQQAISLSYLGVNGKSIDCKDGYSKIELTYNKDGEMESRKYTNASGRILLTQKWNGKEWVNSSPEPISRNWQQDVRKFNAELPIDFGENTKHLVASSFLVTGSNSCELSFKTPKSKYEMTEAEVNEYFASIKLVVTKIKSESLPSSVVITGILFDSKGRQLRSIRK”, “failed”. The value for “MIGLMIRVAGQLGRYARLLPATAGMVLVLQVAAQADVLTINGGAKFTNYPMVTLGINAALHGGTVQAMRFSIDDSTWTDWEPVAASKRFKLTEPLSLSFYDVFLQFQQDGVAVPDPPYPAAIVYDDLIDTGFFGGQGVALLGGTGSDRGKGVVVQPDGKLLVVGTVEQAAGNTDIVLWRLTAQGEPDTGFGVQGSVVIDAGTADRAAGVALQGDGKILVLGTVGSATTAWEVRRYDSAGVLDTSFGTGGKYQEGASGANEAGNLLVQPDGRIVIIGSRDVAGAKKIQVIRLTATGVLDSAFNGNTGYYRPNLPGNSFGNGVALQADGKILLVGTYANPSGETDLFVQRLKTDGTLDNFNDGLNNFFMAGDAGNDEGLGIAVQPDGKIVVVGAYQWGAGDTDIWVLRLNENGTRDNDFNAPVGDYKDGDVYNDRAEALVIQPDGKIVVVGSFGYATDTDILVFRLNADGTTDNTIYNFYGFYTINSGDDEGQGVALQPDGNIVLVSTFTREEGDTDIHVHRIFGRKETLSVSTTGGGSVADDLGAFTWVDLSGEGDYLQGDSVALTAAPATGYVFTGWGGDCAGTSPVCTVTMDGAKNVTASFSLDRPAAPTGLSGVPGNGTAGISWTASQESGITGYKVYYGITSGNYATPDPVGTTPAHVISGLMNGVTYYIAVSVLKNGVEGPKSAEITVTPGINLSVTVVGTGGGTVSSAPGGISCLDGSGCSAVFNAAPVVLSATPSAGSIFAGWSGACSGTDGCTVTQYGPVAVTATFTKMPPVKLTAGTTSYYSTIAEAYAACIGGTSCTIETQATELAGNVTLANAIAVLFKGGYDATFSSSPGLTTLQGVVTVGRGSLTAQNVVIR” was “failed”; that for “MIGLSKSRGALSMENQKMPEYETIRAAVAGEKWAVEKVVDCYKDEIDRLSTVAVRQPDGSTKQEINEDMRQSITKKLIEALPQFPLEEMEKGNVR” was “failed”; that for “MIGVVATLKVQPAKAAEFEKVFLDLAAKVKANEPGCLVYQLTRSKTEEGVYKVLELYASMDALKHHGGTDYFKAAGAAMGPTMAGAPVIEYLDAVE” was “not failed”.

For the sequence “MIGWTLGQYFFIRYLKMTCYFLGGIFVLALLIDFTENSGRLSSLPRYTAKDAFLISVLRIPFIMQQLIPFIALFSAMAMLISLNRKSELVVTRSIGISAWQFLMPACFGAFLFGLFSILLVNPLAAWGFSQAERMMTEWRSKNNNVLTSLHNTRILWLTQRTHSGRTTIGAKSITDQGLSLIDATFVQYNDNATIKNWINSRKATLINGAWLLTDGTIYKIGHPPEKFSELQIQTTLKPEFLTERLVNPATIPFYQLPTKIMIARSFGYSANNFDMYLQSLIALPALLIAMTLIAAVVSLNFTRFGQSKILILGGVIAGFSLYVISILVQAFGNAGYIPPIIAAWTPVFIALFLGISFLLHKEDG”, the protein production result is listed as “failed”. The value for “MIIDINRLDRAFDLIKEGVSKGVFPGAVAAVGTRERVIRLESFGNRCLYPEKLSMNKDTLFDLASLTKVVATNTLFMIFLEKGLISVYDNVSYYLEKFKGKNKDDVTIFNLLTHTAGFVPCKPLYKLCKGYEDSIDYICRCGLSYKPGTKCVYSDFSYILLAYILEKIGGDTLDILCDRYIFKPLYMENTTFKPKGNNIAATEIDKKTKKPLIGVCHDENGRFFGGISGHAGLFSDIYDLCKFSNMLVNEGKGIISYASFKAMTTNHTLGLEDNRGYGWCIKGDKNSFMGDIAFPETFGHNGFTGTSLWVDIKNNIYAILLTNRVHPTRDNLRIIRFRRVFSNAVLASLTRLEHHHHHH” was “failed”; that for “MIIKFTVVICTYNGAKRLPKVLDELQNQIDTEAISWEILVVDNNSTDSTKQVVQQYQNTCFKPGQLRYSFEPEQGLAIARQHAVTAARGELIGFLDDDNIPSLTWVASAYLFAQNHPCAGAYGSRIQGEFEVPPPDDFKRIAALLALTERGSKKLLYEPKKKVLPPGAGLVVRKQAWLENVPKRCFLQGRVCEPYLPGEDLEALLHIQQAGWDIWYNPEMQITHQIPHWRLKKDYLVDLCRGIGLSRYHTRMLSVKPWQAPVLFWLYIFNDVRKLILHLYKYRGRVKSDLIAACELELFIGSLLSPPYIWKAYIKKYFRKQRPVSFSSSVRCADYTQN” was “failed”.
